Reference: patent publication US7799901B2, “Modulators of the function of FAS receptors and other proteins” (Yeda Research and Development Co. Ltd., priority 1995, dated 2010)

B1: MACHα1 (C360S): MACHα1 mutant in which the catalytic cysteine Cys360 is replaced by Ser (protein)
chain: MDFSRNLYDIGEQLDSEDLASLKFLSLDYIPQRKQEPIKDALMLFQRLQEKRMLEESNLSFLKELLFRINRLDLLITYLNTRKEEMERELQTPGRAQISAYRVMLYQISEEVSRSELRSFKFLLQEEISKCKLDDDMNLLDIFIEMEKRVILGEGKLDILKRVCAQINKSLLKIINDYEEFSKERSSSLEGSPDEFSNGEELCGVMTISDSPREQDSESQTLDKVYQMKSKPRGYCLIINNHNFAKAREKVPKLHSIRDRNGTHLDAGALTTTFEELHFEIKPHDDCTVEQIYEILKIYQLMDHSNMDCFICCILSHGDKGIIYGTDGQEAPIYELTSQFTGLKCPSLAGKPKVFFIQASQGDNYQKGIPVETDSEEQPYLEMDLSSPQTRYIPDEADFLLGMATVNNCVSYRNPAEGTWYIQSLCQSLRERCPRGDDILTILTEVNYEVSNKDDKKNMGKQMPQPTFTLRKKLVFPSD
B2: MACHβ1: MACH isoform, cDNA SEQ ID NO: 4, amino acid SEQ ID NO: 5; lacks the CED3/ICE homology region (protein)
chain: MDFSRNLYDIGEQLDSEDLASLKFLSLDYIPQRKQEPIKDALMLFQRLQEKRMLEESNLSFLKELLFRINRLDLLITYLNTRKEEMERELQTPGRAQISAYRVMLYQISEEVSRSELRSFKFLLQEEISKCKLDDDMNLLDIFIEMEKRVILGEGKLDILKRVCAQINKSLLKIINDYEEFSKERSSSLEGSPDEFSNDFGQSLPNEKQTSGILSDHQQSQFCKSTGESAQTSQH

How the values were obtained:
[1] = molecular target: T1, MACHβ1 (Homo sapiens, UniProt Q14790); experiment: Two-hybrid β-galactosidase filter assay (FIG. 5), binding to MACHβ1; conditions: two hybrid test
T1 construct: a construct encoding only the ORF-B (MACH B) region; expressed in transfected cells; host or cells: SFY526 yeast
Experimental: (§1) The yeast two-hybrid test was further applied to evaluate the specificity of binding of MACH to MORT-1, in particular, to define the region in MORT-1 to which MACH binds, as well as to determine which of the MACH ORFs interacts with MORT-1, the procedures being as set forth herein above in Examples 1 and 2. Briefly, various MORT-1 and MACH constructs were prepared for testing the interaction of the proteins encoded by the Gal4 DNA-binding domain and activation domain constructs within transfected SFY526 yeast cells as assessed by the β-galactosidase expression filter assay. The DNA-binding domain constructs were prepared in pGBT9 vectors and the activation domain constructs were prepared in pGAD-GM vectors. For the activation domain constructs, the full-length MACH cDNA was used (MACH), as was a construct encoding only the ORF-B (MACH B) region. Control activation domain constructs were those containing the full-length MORT-1 coding sequence (MORT 1, positive control) and those having no inserts, i.e., “empty” vectors (pGAD-GM). For the DNA-binding domain constructs, the full-length MORT-1 cDNA was used (MORT 1), as were constructs encoding only the MORT-1 […] (MORT-1DD aa 130-245). […] In the assay, the development of color was determined, where the greater the color development, the greater the interaction between the constructs encoded by the DNA-binding domain and activation domain; Color development was depicted by symbols, where “+++” and “+” indicate the development of a strong color within 30 and 90 min. of the assay, respectively, and “−−−” indicates the lack of development of color within 24 hrs. of the assay. […]
(§2) In FIG. 5, there is shown the results of the interaction of MORT-1 and MACH within transfected yeast cells. […] Their interaction was assessed by a β-galactosidase expression filter assay as described in Boldin et al (1995b). […]

[2] = molecular target: T2, MORT-1 (Homo sapiens, UniProt Q13158, G32V); experiment: Two-hybrid β-galactosidase filter assay (FIG. 5), binding to MORT-1; design: the full-length MORT-1 cDNA was used (MORT 1); expressed in transfected cells; host or cells: SFY526 yeast; conditions: two hybrid test
T2 sequence (Q13158 with tags, fused parts or gaps G32V): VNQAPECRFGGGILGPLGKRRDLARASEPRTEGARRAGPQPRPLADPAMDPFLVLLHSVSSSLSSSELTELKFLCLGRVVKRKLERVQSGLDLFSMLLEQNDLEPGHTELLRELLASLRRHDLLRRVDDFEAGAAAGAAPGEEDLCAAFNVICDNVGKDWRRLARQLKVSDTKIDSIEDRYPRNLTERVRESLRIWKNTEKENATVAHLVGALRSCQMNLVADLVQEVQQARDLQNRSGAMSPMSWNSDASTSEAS
Experimental: as §1, §2

Molecule	binding to MACHβ1 in transfected yeast [1]	binding to MORT-1 in transfected yeast [2]
MACHα1: MACH isoform, cDNA SEQ ID NO: 14, amino acid SEQ ID NO: 7; contains CED3/ICE homology region	scored clearly positive	scored clearly positive
B1	bound	bound
B2	self-associated	binds
